Assay results from patent US20250154278A1 (JANUX THERAPEUTICS, published 2025).
Numbering of substitutions follows the chain as printed. Names may count otherwise. Like-named read-outs stand apart in the source and are kept apart here. Each block holds one binder with its values, some of them ahead of it.

Key:
[1] = target: T1, Human TROP2 full length, on tumor cells (HCT116, MDAMB231, NCI-H292) (human, UniProt P09758 31-323); assay: cell-based or functional assay
T1 sequence: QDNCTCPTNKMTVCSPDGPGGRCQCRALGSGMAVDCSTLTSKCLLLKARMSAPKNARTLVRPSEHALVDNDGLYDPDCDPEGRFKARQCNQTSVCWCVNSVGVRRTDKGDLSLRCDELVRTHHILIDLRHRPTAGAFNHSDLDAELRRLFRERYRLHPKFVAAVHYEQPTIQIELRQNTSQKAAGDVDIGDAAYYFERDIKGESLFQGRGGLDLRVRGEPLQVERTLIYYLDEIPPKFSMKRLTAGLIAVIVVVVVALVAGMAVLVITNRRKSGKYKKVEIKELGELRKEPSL

[2] = target: T1, Human TROP2 full length, on tumor cells …; assay: cell-based or functional assay; remark: listed apart in the source
[3] = target: T1, Human TROP2 full length, on tumor cells …; assay: cell-based or functional assay; remark: listed apart in the source
Cyno CD3 = target: T2, Cyno CD3 (Antigen was biotinylated for capture on neutravidin plates; the site of biotin and any tag are not stated.); assay: Cyno CD3 binding ELISA
T2 construct: also called cynomolgus monkey CD3
T2 chain: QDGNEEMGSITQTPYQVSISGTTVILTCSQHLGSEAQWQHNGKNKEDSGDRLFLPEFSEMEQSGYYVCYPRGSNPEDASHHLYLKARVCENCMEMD

[4] = target: T3, Human TROP2 ECD (31-274 AA), biotinylated (human, UniProt P09758 31-274, biotinylated (site not stated)); assay: TROP2 binding ELISA, biotinylated TROP2 on neutravidin plates
T3 construct: the entry is already residues 31-274; also called Human TROP2-biotin; hTROP2-Biotin
T3 sequence: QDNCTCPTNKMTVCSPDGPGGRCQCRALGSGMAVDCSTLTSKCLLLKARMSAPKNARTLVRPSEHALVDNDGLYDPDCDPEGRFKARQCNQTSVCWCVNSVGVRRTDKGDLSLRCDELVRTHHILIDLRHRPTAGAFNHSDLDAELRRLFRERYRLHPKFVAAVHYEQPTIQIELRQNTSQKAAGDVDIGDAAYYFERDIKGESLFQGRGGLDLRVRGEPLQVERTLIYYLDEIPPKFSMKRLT

[5] = target: T4, human CD3 epsilon, biotinylated (human, UniProt P07766 23-126, limits assumed, biotinylated (site not stated)); assay: Human CD3 binding ELISA
T4 construct: Printed in places as CD36, CD38, CD3c or CD3&; also called CD3e-bio; human CD3e-biotin
T4 sequence (P07766 23-126 limits assumed): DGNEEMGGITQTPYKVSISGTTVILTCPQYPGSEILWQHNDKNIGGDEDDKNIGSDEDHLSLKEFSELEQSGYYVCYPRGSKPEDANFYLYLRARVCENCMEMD

[6] = target: T3, Human TROP2 ECD (31-274 AA), …; assay: TROP2 binding ELISA; the table's head prints only 'EC50', the unit is that of the axis Log [TCE nM]
[7] = target: T1, Human TROP2 full length, on tumor cells …; assay: cell-based or functional assay; remark: listed apart in the source
[8] = target: T3, Human TROP2 ECD (31-274 AA), …; assay: BLI, human TROP2-biotin (10 nM) on sensor, 50 nM TCE
[9] = target: T1, Human TROP2 full length, on tumor cells …; assay: cell-based or functional assay; remark: listed apart in the source
[10] = target: T5, Cynomolgus monkey TROP2 full length, on recombinant HEK293 cells (cynomolgus monkey, UniProt P09758 31-323 (human entry)); assay: cell-based or functional assay
T5 chain: T1 sequence with M32V, S63N, I200V, M262V, T268S

[11] = target: T4, human CD3 epsilon, biotinylated; assay: ELISA, CD3e-biotin captured
[12] = target: T4, human CD3 epsilon, biotinylated; assay: BLI, CD3e-biotin on sensor (summary)
[13] = target: T4, human CD3 epsilon, biotinylated; assay: CD3 binding ELISA
[14] = target: T1, Human TROP2 full length, on tumor cells …; assay: cell-based or functional assay; remark: listed apart in the source
[15] = target: T3, Human TROP2 ECD (31-274 AA), …; assay: ELISA, immobilized TROP2, HRP secondary antibody

B1: TCE-9 (anti-CD3 scFv wt + linker + anti-TROP2 HC wt; anti-TROP2 LC wt) (bispecific antibody)
light: DIQLTQSPSSLSASVGDRVSITCKASQDVSIAVAWYQQKPGKAPKLLIYSASYRYTGVPDRFSGSGSGTDFTLTISSLQPEDFAVYYCQQHYITPLTFGAGTKVEIKRTVAAPSVFIFPPSDEQLKSGTASVVCLLNNFYPREAKVQWKVDNALQSGNSQESVTEQDSKDSTYSLSSTLTLSKADYEKHKVYACEVTHQGLSSPVTKSFNRGEC
heavy: not shown
H292 Cytotox EC50 [1]: 0.7 pM
H292 Cytotox EC50 [2]: 0.7 pM
H292 Cytotox EC50 [3]: 0.7 pM

B4: TCE-41 (anti-CD3 scFv with P41S, A49G, N87S and further mutations as in TCE-35; anti-TROP2 HC F108A) (bispecific antibody)
light: B1 light
heavy: EVQLVESGGGLVQPGGSLKLSCAASGFTFNKYAMNWVRQASGKGLEWVGRIRSKYNNYATYYADSVKDRFTISRDDSKNTAYLQMNSLKTEDTAVYYCVRHGNFGNSYISYWAYWGQGTLVTVSSGGGGSGGGGSGGGGSQTVVTQEPSFSVSPGGTVTLTCRSSTGAVTSGNYANWVQQTPGQAPRGLIGGTKFLAPGVPDRFSGSILGNKAALTITGAQADDESDYYCVLWYSNRWVFGGGTKLTVLGGGGSQVQLQQSGSELKKPGASVKVSCKASGYTFTNYGMNWVKQAPGQGLKWMGWINTYTGEPTYTDDFKGRFAFSLDTSVSTAYLQISSLKADDTAVYFCARGGFGSSYWYADVWGQGSLVTVSSASTKGPSVFPLAPSSKSTSGGTAALGCLVKDYFPEPVTVSWNSGALTSGVHTFPAVLQSSGLYSLSSVVTVPSSSLGTQTYICNVNHKPSNTKVDKKVEPKSC
H292 Cytotox EC50 [7]: 3 pM
Kd [8]: 1220 pM
HCT116 Cytotox EC50 [9]: 73 pM

B7: TCE-44 (bispecific antibody)
light chain (anti-TROP2 LC wt): B1 light
heavy chain (anti-CD3 scFv H101A + linker + anti-TROP2 D109A HC): not shown
notes: also called anti-CD3 scFv (H101A) + linker + anti-TROP2 (D109A) HC; anti-TROP2 LC wt
EC50 [13]: 594 pM
EC50 [6]: 1380 pM

B8: TCE-7 (TROP2 Fab HC F108A TCE, scFv on the Fab HC) (bispecific antibody)
light: B1 light
heavy: not shown
notes: Description names a HisTag on the HC
TCE Cytotoxicity EC50, H292 + CD8+ T cells [14]: 5.6 pM
TCE Cytotoxicity EC50, HCT116 + CD8+ T cells [14]: 206 pM
TCE Cytotoxicity EC50, MDAMB231 + CD8+ T cells [14]: 47.8 pM
EC50 [15]: 1400 pM

B9: TCE-4 (TROP2 Fab HC F108A TCE, scFv on the Fab LC) (bispecific antibody)
light: not shown
heavy: QVQLQQSGSELKKPGASVKVSCKASGYTFTNYGMNWVKQAPGQGLKWMGWINTYTGEPTYTDDFKGRFAFSLDTSVSTAYLQISSLKADDTAVYFCARGGFGSSYWYADVWGQGSLVTVSSASTKGPSVFPLAPSSKSTSGGTAALGCLVKDYFPEPVTVSWNSGALTSGVHTFPAVLQSSGLYSLSSVVTVPSSSLGTQTYICNVNHKPSNTKVDKKVEPKSC
notes: Description names HisTag AviTag on the HC
TCE Cytotoxicity EC50, H292 + CD8+ T cells [14]: 0.4 pM
TCE Cytotoxicity EC50, HCT116 + CD8+ T cells [14]: 18.3 pM
TCE Cytotoxicity EC50, MDAMB231 + CD8+ T cells [14]: 6.3 pM
EC50 [15]: 7300 pM

The next lines start with results.

EC50 (Cyno CD3): 671 pM
EC50 [4]: 1020 pM
EC50 [5]: 761 pM
B2: TCE-39 (anti-CD3 scFv F104A, anti-TROP2 HC F108A) (bispecific antibody)
light: B1 light
heavy: not shown

EC50 [6]: 893 pM
B3: TCE-45 (anti-CD3 scFv F104A, anti-TROP2 HC D109A) (bispecific antibody)
light: B1 light
heavy: not shown

EC50 (Cyno CD3): 482 pM
EC50 [5]: 531 pM
B5: TCE-40 (anti-CD3 scFv F240A, anti-TROP2 HC F108A) (bispecific antibody)
light: B1 light
heavy: not shown
CynoTROP2 + HEK293 cells Cytotox EC50 [10]: 5 pM
HCT116 Cytotox EC50 [9]: > 3000 pM

EC50 [11]: 600 pM
CD3 t1/2 [12]: 39 s
B6: TCE-34 (anti-CD3 scFv F240A, anti-TROP2 wt) (bispecific antibody)
light: B1 light
heavy: not shown
H292 Cytotox EC50 [2]: 20 pM
